Measurements: paper PMC13544220, “Glycemic and bodyweight effects of GIPR coding variation reflect differences in surface expression and intrinsic functional impairment” (Science Advances, 2026)
Where a chain is given by its changes, count along the chain named. Names and notes keep the numbering of the source.

Experiments:
Type in all cases: cell-based, human
[1] = system: wild-type and variant SNAP-GIPR; test: Surface SNAP-GIPR expression (SNAP-tag labelling) in AD293 cells; settings: for AD293 Surface: Fig S3E, mean; for Surface SNAP-GIPR expression: sheet Fig 1C;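 on all read-outs here: scaled to the experimental average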
How it was run: (§1)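 Read-out: whole-cell fluorescence of surface-only SNAP label (Alexa Fluor 647, 500 nM, 10 min, RT), wide-field 20X, several FOVs per well. Flat-field corrected, phase-contrast masked, nontransfected-well signal subtracted; normalized to experiment mean or wild-type.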

[2] = system: wild-type and variant SNAP-GIPR; test: Single-concentration GIP cAMP response by HTRF in AD293 cells; settings: Fig S3F, HTRF, mean;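 further: ratio to experiment-wide average response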
Description: (§2) All variants were tested in parallel on each occasion to control for transfection efficiency differences between experiments.

[3] = system: wild-type and variant SNAP-GIPR; test: Constitutive and agonist-mediated internalization, reversible SNAP-tag labelling, AD293 cells; set-up: key to Internalisation, Vehicle / Internalisation, +GIP / Internalisation, GIP-only: % internalization: residual fluorescence after Mesna vs pre-Mesna; Surface expression: unit not given here; settings: Mean; for +GIP internalisation (100 nM) / GIP-specific internalisation (100 nM) / Constitutive internalisation (100 nM) / Surface expression: Fig 4E; for +GIP internalisation (100 nM) / GIP-specific internalisation (100 nM): GIP 100 nM; for Internalisation, +GIP / Internalisation, GIP-only / Internalisation, Vehicle: Fig S4C, AD293
How it was run: (§3)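 Percentage internalization is read as the fraction of specific SNAP fluorescence that survives Mesna stripping, compared with the image taken before Mesna. Wells are imaged in TNE buffer at pH 8.6 and again after 10 min.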

[4] = system: wild-type and variant SNAP-GIPR; test: Constitutive and agonist-mediated internalization, reversible SNAP-tag labelling, INS-1 cells; set-up: key to Internalisation, GIP-only / Internalisation, Vehicle / Internalisation, +GIP: % internalization: residual fluorescence after Mesna vs pre-Mesna; settings: Mean; for +GIP internalisation (100 nM) / GIP-specific internalisation (100 nM) / Constitutive internalisation (100 nM): Fig 4G; for +GIP internalisation (100 nM) / GIP-specific internalisation (100 nM): GIP 100 nM; for Internalisation, +GIP / Internalisation, GIP-only / Internalisation, Vehicle: Fig S4C, INS-1
How it was run: as §3

[5] = system: wild-type and variant SNAP-GIPR; test: Surface SNAP-GIPR expression (SNAP-tag labelling) in INS-1 cells; settings: Fig 4G; Mean
How it was run: as §1

[6] = system: wild-type and variant SNAP-GIPR; test: Single-concentration GIP cAMP response by HTRF in INS-1 cells; settings: Fig S3E, mean
Description: as §2

[7] = system: wild-type and variant SNAP-GIPR; test: cADDis cAMP imaging in AD293 cells, ensemble, expression-matched and per decile; settings: Fig S3F, cADDis, mean;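 further: Ensemble cells as % of IBMX/FSK response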
How it was run: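 AD293 cells were transfected with SNAP-GIPR constructs and cotransduced with the cADDis Green Up cAMP sensor, then labeled after 24 h with 500 nM SNAP-Surface Alexa Fluor 647. Per-cell cADDis intensity was tracked at 37°C in KRBH with 6 mM glucose and 0.1% BSA.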

[8] = column repeated, paired with cAMP 100 nM

B1: E463Q (protein, UniProt P48546 22-466, looked up, variant E463Q)
Gastric inhibitory …: RAETGSKGQTAGELYQRWERYRRECQETLAAAEPPSGLACNGSFDMYVCWDYAAPNATARASCPWYLPWHHHVAAGFVLRQCGSDGQWGLWRDHTQCENPEKNEAFLDQRLILERLQVMYTVGYSLSLATLLLALLILSLFRRLHCTRNYIHINLFTSFMLRAAAILSRDRLLPRPGPYLGDQALALWNQALAACRTAQIVTQYCVGANYTWLLVEGVYLHSLLVLVGGSEEGHFRYYLLLGWGAPALFVIPWVIVRYLYENTQCWERNEVKAIWWIIRTPILMTILINFLIFIRILGILLSKLRTRQMRCRDYRLRLARSTLTLVPLLGVHEVVFAPVTEEQARGALRFAKLGFEIFLSSFQGFLVSVLYCFINKEVQSEIRRGWHHCRLRRSLGEEQRQLPERAFRALPSGSGPGEVPTSRGLSSGTLPGPGNEASRELQSYC
AD293 Surface [1, 8]: 1.191 | AD293 Surface ([1]; paired with cAMP 100 pM): 1.191 | Surface SNAP-GIPR expression ([1]; replicate 1): 1.219 | Surface SNAP-GIPR expression ([1]; replicate 2): 1.021 | Surface SNAP-GIPR expression ([1]; replicate 3): 0.7247 | Surface SNAP-GIPR expression ([1]; replicate 4): 1.851 | Surface SNAP-GIPR expression ([1]; replicate 5): 0.8113 | Surface SNAP-GIPR expression ([1]; replicate 6): 1.148 | Surface SNAP-GIPR expression ([1]; replicate 7): 0.8161 | Surface SNAP-GIPR expression ([1]; replicate 8): 1.203 | Surface SNAP-GIPR expression ([1]; replicate 9): 1.004 | Surface SNAP-GIPR expression ([1]; replicate 10): 0.9721 | Surface SNAP-GIPR expression ([1]; replicate 11): 1.39 | Surface SNAP-GIPR expression ([1]; replicate 12): 1.373 | Surface SNAP-GIPR expression ([1]; replicate 13): 1.65 | Surface SNAP-GIPR expression ([1]; replicate 14): 1.648 | Surface SNAP-GIPR expression ([1]; replicate 15): 1.459 | Surface SNAP-GIPR expression ([1]; replicate 16): 1.416 | Surface SNAP-GIPR expression ([1]; replicate 17): 1.284 | Surface SNAP-GIPR expression ([1]; replicate 18): 1.262 | Surface SNAP-GIPR expression ([1]; replicate 19): 1.404 | Surface SNAP-GIPR expression ([1]; replicate 20): 1.518 | Surface SNAP-GIPR expression ([1]; replicate 21): 1.445 | Surface SNAP-GIPR expression ([1]; replicate 22): 1.187 | Surface SNAP-GIPR expression ([1]; replicate 23): 1.117 | Surface SNAP-GIPR expression ([1]; replicate 24): 1.135 | Surface SNAP-GIPR expression ([1]; replicate 25): 1.182 | Surface SNAP-GIPR expression ([1]; replicate 26): 1.219 | Surface SNAP-GIPR expression ([1]; replicate 27): 0.8928 | Surface SNAP-GIPR expression ([1]; replicate 28): 1.514 | Surface SNAP-GIPR expression ([1]; replicate 29): 0.593 | Surface SNAP-GIPR expression ([1]; replicate 30): 0.9046 | Surface SNAP-GIPR expression ([1]; replicate 31): 0.8556 | Surface SNAP-GIPR expression ([1]; replicate 32): 1.334 | Surface SNAP-GIPR expression ([1]; replicate 33): 1.324 | Surface SNAP-GIPR expression ([1]; replicate 34): 1.052 | Surface SNAP-GIPR expression ([1]; replicate 35): 1.061 | Surface SNAP-GIPR expression ([1]; replicate 36): 1.215 | Surface SNAP-GIPR expression ([1]; replicate 37): 1.115 | Surface SNAP-GIPR expression ([1]; replicate 38): 0.8974 | Surface SNAP-GIPR expression ([1]; replicate 39): 1.265 | Surface SNAP-GIPR expression ([1]; replicate 40): 1.153 | Surface SNAP-GIPR expression ([1]; replicate 41): 1.19 | AD293 100 pM HTRF [2]: 1.1295 | AD293 100 nM HTRF [2]: 1.311 | +GIP internalisation (100 nM) [3]: 0.6258 | GIP-specific internalisation (100 nM) [3]: 0.1525 | Constitutive internalisation (100 nM) [3]: 0.4733 | Surface expression [3]: 1.14 | Internalisation, +GIP [3]: 55.318 | Internalisation, GIP-only [3]: 13.3425 | Internalisation, Vehicle [3]: 41.9756 | +GIP internalisation (100 nM) [4]: 0.6116 | GIP-specific internalisation (100 nM) [4]: 0.1296 | Constitutive internalisation (100 nM) [4]: 0.4821 | Internalisation, +GIP [4]: 48.5083 | Internalisation, GIP-only [4]: 10.305 | Internalisation, Vehicle [4]: 38.2033 | Surface expression [5]: 1.282 | INS-1 cAMP (100 nM) [6]: 1.2 | AD293 100 pM cADDis [7]: 34.7191 | AD293 100 nM cADDis [7]: 36.9

B2: I403V (protein, UniProt P48546 22-466, looked up, variant I403V)
Gastric inhibitory …: B1 Gastric inhibitory … with I382V, Q442E
AD293 Surface [1, 8]: 1.077 | AD293 Surface ([1]; paired with cAMP 100 pM): 1.077 | Surface SNAP-GIPR expression ([1]; replicate 1): 1.081 | Surface SNAP-GIPR expression ([1]; replicate 2): 1.363 | Surface SNAP-GIPR expression ([1]; replicate 3): 0.2202 | Surface SNAP-GIPR expression ([1]; replicate 4): 1.549 | Surface SNAP-GIPR expression ([1]; replicate 5): 1.258 | Surface SNAP-GIPR expression ([1]; replicate 6): 1.264 | Surface SNAP-GIPR expression ([1]; replicate 7): 0.985 | Surface SNAP-GIPR expression ([1]; replicate 8): 0.9444 | Surface SNAP-GIPR expression ([1]; replicate 9): 1.045 | Surface SNAP-GIPR expression ([1]; replicate 10): 1.237 | Surface SNAP-GIPR expression ([1]; replicate 11): 0.9384 | Surface SNAP-GIPR expression ([1]; replicate 12): 0.958 | Surface SNAP-GIPR expression ([1]; replicate 13): 1.387 | Surface SNAP-GIPR expression ([1]; replicate 14): 1.061 | Surface SNAP-GIPR expression ([1]; replicate 15): 1.05 | Surface SNAP-GIPR expression ([1]; replicate 16): 0.9753 | Surface SNAP-GIPR expression ([1]; replicate 17): 1.072 | Surface SNAP-GIPR expression ([1]; replicate 18): 0.9656 | Surface SNAP-GIPR expression ([1]; replicate 19): 0.8084 | Surface SNAP-GIPR expression ([1]; replicate 20): 1.091 | Surface SNAP-GIPR expression ([1]; replicate 21): 0.9955 | Surface SNAP-GIPR expression ([1]; replicate 22): 1.089 | Surface SNAP-GIPR expression ([1]; replicate 23): 1.06 | Surface SNAP-GIPR expression ([1]; replicate 24): 1.048 | Surface SNAP-GIPR expression ([1]; replicate 25): 0.9764 | Surface SNAP-GIPR expression ([1]; replicate 26): 0.8875 | Surface SNAP-GIPR expression ([1]; replicate 27): 0.9058 | Surface SNAP-GIPR expression ([1]; replicate 28): 1.123 | Surface SNAP-GIPR expression ([1]; replicate 29): 1.103 | Surface SNAP-GIPR expression ([1]; replicate 30): 1.39 | Surface SNAP-GIPR expression ([1]; replicate 31): 1.166 | Surface SNAP-GIPR expression ([1]; replicate 32): 1.223 | Surface SNAP-GIPR expression ([1]; replicate 33): 1.12 | Surface SNAP-GIPR expression ([1]; replicate 34): 1.156 | Surface SNAP-GIPR expression ([1]; replicate 35): 1.076 | Surface SNAP-GIPR expression ([1]; replicate 36): 1.273 | Surface SNAP-GIPR expression ([1]; replicate 37): 1.139 | Surface SNAP-GIPR expression ([1]; replicate 38): 1.049 | Surface SNAP-GIPR expression ([1]; replicate 39): 1.042 | Surface SNAP-GIPR expression ([1]; replicate 40): 1.006 | Surface SNAP-GIPR expression ([1]; replicate 41): 1.094 | AD293 100 pM HTRF [2]: 1.267 | AD293 100 nM HTRF [2]: 1.595 | +GIP internalisation (100 nM) [3]: 0.6419 | GIP-specific internalisation (100 nM) [3]: 0.176 | Constitutive internalisation (100 nM) [3]: 0.4659 | Surface expression [3]: 1.133 | Internalisation, +GIP [3]: 57.0289 | Internalisation, GIP-only [3]: 15.5744 | Internalisation, Vehicle [3]: 41.4545 | +GIP internalisation (100 nM) [4]: 0.5388 | GIP-specific internalisation (100 nM) [4]: 0.1314 | Constitutive internalisation (100 nM) [4]: 0.4074 | Internalisation, +GIP [4]: 49.7833 | Internalisation, GIP-only [4]: 12.345 | Internalisation, Vehicle [4]: 37.4383 | Surface expression [5]: 1.09 | INS-1 cAMP (100 nM) [6]: 1.36 | AD293 100 pM cADDis [7]: 32.3253 | AD293 100 nM cADDis [7]: 38.62
